In article PMC8396345 one finds Kd and binding signal data, which are given here for 7 sequences.

The test system of data set [1] is norovirus GII.4 New Orleans VLP (VP1) (Norovirus GII.4 New Orleans). Briefly: filter binding. Particulars: FRA: 1 nM 32P-aptamer, 0-1500 nM VLP, 60 min, each aptamer's original selection buffer (M1, M6-2, SMV19, SMV21: PBS pH 7.4; others in Table S1, not in material).
Data set [2] deals with norovirus GI.7 VLP (VP1) (Norovirus GI.7). Description: filter binding. As to conditions: FRA: 1 nM 32P-aptamer, 0-1500 nM VLP, 60 min, each aptamer's original selection buffer (M1, M6-2, SMV19, SMV21: PBS pH 7.4; others in Table S1, not in material).
Data set [3] deals with norovirus GII.3 VLP (VP1) (Norovirus GII.3). Briefly: filter binding. As to conditions: FRA: 1 nM 32P-aptamer, 0-1500 nM VLP, 60 min, each aptamer's original selection buffer (M1, M6-2, SMV19, SMV21: PBS pH 7.4; others in Table S1, not in material).
The subject of data set [4] is norovirus GII.4 Sydney VLP (VP1) (Norovirus GII.4 Sydney). Briefly: filter binding. As to conditions: FRA: 1 nM 32P-aptamer, 0-1500 nM VLP, 60 min, each aptamer's original selection buffer (M1, M6-2, SMV19, SMV21: PBS pH 7.4; others in Table S1, not in material).
Data set [5] relates to norovirus GII.2 VLP (VP1) (Norovirus GII.2). As to conditions: FRA: 1 nM 32P-aptamer, 0-1500 nM VLP, 60 min, each aptamer's original selection buffer (M1, M6-2, SMV19, SMV21: PBS pH 7.4; others in Table S1, not in material); cited from earlier work.
The subject of data set [6] is norovirus P-domain (Norovirus GII.4). Description: filter binding. Particulars: FRA: 1 nM 32P-aptamer, 0-1500 nM VLP, 60 min, each aptamer's original selection buffer (M1, M6-2, SMV19, SMV21: PBS pH 7.4; others in Table S1, not in material).
Data set [7] shares this test system. Particulars: FRA: 1 nM 32P-aptamer, 0-1500 nM VLP, 60 min, each aptamer's original selection buffer (M1, M6-2, SMV19, SMV21: PBS pH 7.4; others in Table S1, not in material); cited from earlier work.

The Kd is the constant that tells how readily two partners part at equilibrium. As for “GTCTGTAGTAGGGAGGATGGTCCGGGGCCCCGAGACGACGTTATCAGGC [Beier]”, the Kd in data set [1] stood at 105 nM; in data set [2], 63 nM; in data set [3], 115 nM; in data set [4], 71 nM.
For “GCTAGCGAATTCCGTACGAAGGGCGAATTCCACATTGGGCTGCAGCCCGGGGGATCC [AG3]”, the Kd in data set [1] came to 1030 nM; in data set [4], 313 nM.
Take “CACCAGTGTGTTGAGGTTTGAGCACACTGATAGAGTGTCA [SMV19]”: the Kd was 9340 nM in data set [1] and 191 nM in data set [5].
Consider “CCATGTTTTGTAGGTGTAATAGGTCATGTTAGGGTTTCTG [SMV21]”, for which the Kd in data set [1] was 1780 nM; in data set [3], 464 nM; in data set [4], 1250 nM; in data set [5], 101 nM.
As to “TGGGAAGAGGTCCGGTAAATGCAGGGTCAGCCCGGAGAG [M6-2]”, the Kd in data set [1] stood at 928 nM; in data set [4], 1130 nM.
Taken in the same sequence, the figures for “TGTTTATGGGGATAAACGTATCTAATTCGTGTACTAATCA [M1]” were 963 nM and 388 nM.
On to “GAAATTGGGTTCGGGTTTGGGTTGGGATTACTTAGCGATG [Buf-2]”, for which the Kd in data set [1] was 351 nM; in data set [3], 465 nM; in data set [4], 241 nM; in data set [7], 17 nM. The same sequence came in with a binding signal in data set [6] of 100%.
